T1: LmFPPS (Leishmania major, UniProt Q4QBL1)
T1 sequence (Q4QBL1 1-362): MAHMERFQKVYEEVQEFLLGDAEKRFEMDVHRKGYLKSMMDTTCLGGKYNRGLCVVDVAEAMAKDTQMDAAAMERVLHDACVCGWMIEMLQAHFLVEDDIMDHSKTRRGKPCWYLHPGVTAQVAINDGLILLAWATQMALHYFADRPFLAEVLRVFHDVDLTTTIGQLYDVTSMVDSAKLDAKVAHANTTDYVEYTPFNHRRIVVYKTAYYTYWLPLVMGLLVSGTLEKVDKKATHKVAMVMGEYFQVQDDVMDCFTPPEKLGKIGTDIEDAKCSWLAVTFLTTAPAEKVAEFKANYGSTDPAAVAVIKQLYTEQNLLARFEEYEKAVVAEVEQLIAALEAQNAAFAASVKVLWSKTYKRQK


What was measured:
LmFPPS = target: T1, LmFPPS; experiment: SPR, steady-state affinity, protein immobilized on CM5 chip; type: binding
crystal structure = target: the molecule itself; experiment: crystal structure

| Molecule | Kd (LmFPPS) [µM] | binding result (crystal structure) |
| --- | --- | --- |
| CC(C)=CCC/C(C)=C/COP(=O)(O)OP(=O)(O)O [GPP] | 0.049 | – |
| CC(C)=CCC/C(C)=C/CC/C(C)=C/CO[P@@](=O)(O)OP(=O)(O)O [FPP] | 36.6 | – |
| E97Y-LmFPPS (Leishmania major farnesyl diphosphate synthase, E97Y mutant) (enzyme) MAHMERFQKVYEEVQEFLLGDAEKRFEMDVHRKGYLKSMMDTTCLGGKYNRGLCVVDVAEAMAKDTQMDAAAMERVLHDACVCGWMIEMLQAHFLVYDDIMDHSKTRRGKPCWYLHPGVTAQVAINDGLILLAWATQMALHYFADRPFLAEVLRVFHDVDLTTTIGQLYDVTSMVDSAKLDAKVAHANTTDYVEYTPFNHRRIVVYKTAYYTYWLPLVMGLLVSGTLEKVDKKATHKVAMVMGEYFQVQDDVMDCFTPPEKLGKIGTDIEDAKCSWLAVTFLTTAPAEKVAEFKANYGSTDPAAVAVIKQLYTEQNLLARFEEYEKAVVAEVEQLIAALEAQNAAFAASVKVLWSKTYKRQK | – | binds |
| T164Y-LmFPPS (Leishmania major farnesyl diphosphate synthase, T164Y mutant) (enzyme) MAHMERFQKVYEEVQEFLLGDAEKRFEMDVHRKGYLKSMMDTTCLGGKYNRGLCVVDVAEAMAKDTQMDAAAMERVLHDACVCGWMIEMLQAHFLVEDDIMDHSKTRRGKPCWYLHPGVTAQVAINDGLILLAWATQMALHYFADRPFLAEVLRVFHDVDLTTYIGQLYDVTSMVDSAKLDAKVAHANTTDYVEYTPFNHRRIVVYKTAYYTYWLPLVMGLLVSGTLEKVDKKATHKVAMVMGEYFQVQDDVMDCFTPPEKLGKIGTDIEDAKCSWLAVTFLTTAPAEKVAEFKANYGSTDPAAVAVIKQLYTEQNLLARFEEYEKAVVAEVEQLIAALEAQNAAFAASVKVLWSKTYKRQK | – | binds |
| T164W-LmFPPS (Leishmania major farnesyl diphosphate synthase, T164W mutant) (enzyme) MAHMERFQKVYEEVQEFLLGDAEKRFEMDVHRKGYLKSMMDTTCLGGKYNRGLCVVDVAEAMAKDTQMDAAAMERVLHDACVCGWMIEMLQAHFLVEDDIMDHSKTRRGKPCWYLHPGVTAQVAINDGLILLAWATQMALHYFADRPFLAEVLRVFHDVDLTTWIGQLYDVTSMVDSAKLDAKVAHANTTDYVEYTPFNHRRIVVYKTAYYTYWLPLVMGLLVSGTLEKVDKKATHKVAMVMGEYFQVQDDVMDCFTPPEKLGKIGTDIEDAKCSWLAVTFLTTAPAEKVAEFKANYGSTDPAAVAVIKQLYTEQNLLARFEEYEKAVVAEVEQLIAALEAQNAAFAASVKVLWSKTYKRQK | – | binds |
